The text below walks through data of patent US7479478B2, “Human parathyroid hormone modifications, preparation and use” (The General Hospital Corporation, priority 1998, dated 2009).

Entries after “also recorded” stand apart in the source; their conditions may differ. No end group written: not given here.

Experiment [1] addresses T1, human PTH-1 receptors (Homo sapiens, UniProt Q03431).
T1 construct: expressed in transfected cells
T1 sequence (Q03431 27-593): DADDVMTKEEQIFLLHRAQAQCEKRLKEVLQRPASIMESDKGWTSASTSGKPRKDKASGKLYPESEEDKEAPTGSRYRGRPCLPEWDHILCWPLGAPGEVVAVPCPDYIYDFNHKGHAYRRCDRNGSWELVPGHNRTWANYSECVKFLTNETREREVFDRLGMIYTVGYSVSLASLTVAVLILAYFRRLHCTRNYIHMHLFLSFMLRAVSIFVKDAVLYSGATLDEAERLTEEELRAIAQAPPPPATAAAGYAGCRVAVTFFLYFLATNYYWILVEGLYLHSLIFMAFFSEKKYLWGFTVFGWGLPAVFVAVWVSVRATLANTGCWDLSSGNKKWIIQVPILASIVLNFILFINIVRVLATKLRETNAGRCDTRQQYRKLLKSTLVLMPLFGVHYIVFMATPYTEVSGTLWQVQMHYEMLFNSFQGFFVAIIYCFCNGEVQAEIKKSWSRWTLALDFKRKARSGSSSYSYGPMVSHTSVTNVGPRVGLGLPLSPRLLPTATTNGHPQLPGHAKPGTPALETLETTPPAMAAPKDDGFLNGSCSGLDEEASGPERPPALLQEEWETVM
The experiment in a line: PLC activation (IP3 formation) in HKRK B7 cells. The settings on record: for EC50: read-out: EC50 for PLC activation (IP3 formation); for IP3 Formation (% Maximum): % of maximal response to hPTH-(1-34); for PLC activation (IP3 formation), result in words: up to 1000 nM or 10 μM; for PLC activation, percent of basal: 1000 nM peptide. The format is cell-based. On the procedure:
(§1) HKRK B7 or EW5 cells (32), subclones of LLC-PKI renal epithelial cells that stably express human or rat PTH-1 receptors (950,000 and 320,000 receptors/cell, respectively), were maintained under 5% CO2 in air in Dulbecco's modified essential medium containing 7% fetal bovine serum (FBS) and 1% penicillin/streptomycin (GIBCO-BRL, Grand Island, N.Y.). HEK-293 and COS-7 cells were cultured similarly, except that 10% FBS was used in the medium. Cells were seeded into 24-well plates two days before assay at a density of 2-2.5×10^5 cells/well (HKRK B7 or EW 5 cells) or 6×10^5 cells/well (in 6-well plates) (HEK-293 cells). In experiments involving HEK-293 cells, DNA transfections were performed 24 hr after plating and inositol radiolabel was added 24 hr thereafter (see below). COS-7 cell transfections were performed as previously described (Gardella, T. J., et al., Endocrinology 132(5):2024-2030 (1993))
PLC was activated by PTH agonists in the presence of 30 mM LiCl at 37° C. for 30 min after 16 hr of labeling with [^3H]myo-inositol (3 uCi/ml) in serum-free medium containing 0.1% bovine serum albumin. The reactions were stopped by rapid aspiration and addition of cold 5% TCA. Water-soluble radiolabeled inositol trisphosphate (IP3) was isolated after ether extraction by ion-exchange chromatography (Guo, J., et al., Endocrinology 136(9):3884-3891 (1995)). In experiments involving HEK 293 cells, cells previously transfected with human PTHR cDNA (in the pcDNA1 expression vector HKRK) using Lipofectamine (Gibco BRL) were labeled with [^3H]myo-inositol and assayed as described above, except that total water-soluble [^3H]inositol polyphosphates were collected as a single fraction from the ion-exchange columns.

Experiment [2] has as its target T1, human PTH-1 receptors. Nature of the experiment: Intracellular cAMP accumulation (adenylyl cyclase, AC, activation) in HKRK B7 cells. In kind it is cell-based. The settings on record: for Cyclic AMP accumulation (% Maximum): % of maximal response to hPTH-(1-34), HKRK B7; for AC activation (cAMP accumulation), result in words: HKRK B7 cells, compared with hPTH-(1-34) or parent peptide. As to the method:
as §1, with “(1993)) Intracellular cAMP accumulation, PLC activation and PTHR binding affinity were measured as previously reported (Bringhurst, F. R., et al., Endocrinology 132(5):2090-2098 (1993); Guo, J., et al., Endocrinology 136(9):3884-3891 (1995)). Intracellular cAMP accumulation was measured in extracts of cells that were exposed to human PTH peptides in the presence of isobutylmethyxanthine (IBMX, 1 mM) at 37° C. for 15 min. After terminating the reactions by aspiration and freezing in liquid nitrogen, cell monolayers were extracted with 50 mM HCl and cAMP was measured using a radioimmunoassay kit (Dupont-New England Nuclear, Boston, Mass.).” for “(1993))”
In general terms: cAMP levels reflect the balance of adenylyl cyclase and phosphodiesterase activity.

In experiment [3] the target is T1, human PTH-1 receptors. The experiment in a line: Radioligand competition binding with 125I-[Nle8,21,Tyr34]rat PTH-(1-34) in HKRK B7 cells. On the procedure: as §1, with “(1993)) Radioligand competition binding assays were performed at 2-8° C. for 6 hr using ^125I-[Nle^8,21,[…]]rat PTH-(1-34) (100,000 cpm/well) in the presence or absence of non-radioactive hPTH-(1-34) analogs. Cell layers were washed three times before solubilization for determination of cell-associated radioactivity.” for “(1993))”

The subject of a further experiment is membrane-bound PKCs. The settings on record: osteoblast-like ROS 17/2 cells; Neugebauer et al. 1995; cited from earlier work.
Experiment [4] has as its target T1, human PTH-1 receptors. The settings on record: HKRK B7 cells; Takasu and Bringhurst 1998; cited from earlier work.
Experiment [5] deals with T1, human PTH-1 receptors. The settings on record: HKRK B7 cells; Takasu and Bringhurst 1998; cited from earlier work. This is another data set of the same source.

One may read the EC50 as the concentration that produces a half-maximal response. A word on the IC50: it is the concentration at which inhibition is half-maximal.

On to “AVSEIQLMHNLGKHLNSMERVEWLRKKL-NH2 [[Ala^1]hPTH-(1-28)]”, for which the EC50 at human PTH-1 receptors [1] (HKRK B7 cells) stood at 1000 nM.
“AVSEIQLMHNLGKHLNSMRRVEWLRKK [[Ala^1,Arg^19]hPTH-(1-27)]”: the “Cyclic AMP accumulation (% Maximum)” value with human PTH-1 receptors [2] (0.01 nM) is given as −0.2 ± 0.1 % Maximum; with human PTH-1 receptors [2] (0.1 nM), 0.6 ± 0.3 % Maximum; with human PTH-1 receptors [2] (1 nM), 7 ± 0.6 % Maximum; with human PTH-1 receptors [2] (10 nM) it was 50 ± 5.1 % Maximum; with human PTH-1 receptors [2] (100 nM) it was 92 ± 15 % Maximum; with human PTH-1 receptors [2] (1000 nM) it was 99 ± 8.8 % Maximum. Besides, the “IP3 Formation (% Maximum)” value in the experiment with human PTH-1 receptors [1] (1000 nM, HKRK B7) was determined as 1.5 ± 4.8 % Maximum; with human PTH-1 receptors [1] (10000 nM, HKRK B7), 6.9 ± 10 % Maximum.
Take “AVSEIQLMHNLGKHLNSMRRVEWLRKKL-NH2 [[Ala^1,Arg^19]hPTH-(1-28)]”: the “AC activation (cAMP accumulation), result in words” value (“AC activation (cAMP accumulation)” below) on human PTH-1 receptors [2] was “indistinguishable from that of hPTH-(1-34)”. Moreover, the EC50 at human PTH-1 receptors [1] (HKRK B7 cells) was determined as 200 nM. The “fold improvement of EC50 for PLC activation by the Arg^19 modification” value on human PTH-1 receptors [1] (over [Ala^1]hPTH-(1-28), HKRK B7) is 5 fold.
Regarding “GlyValSerGluIleGInLeuMetHisAsnLeuGlyLysHisLeuAsnSerMetGluArgVal GluTrpLeuArgLysLysLeu (GVSEIQLMHNLGKHLNSMERVEWLRKKL; listed as Homo sapiens) [[Gly^1]hPTH-(1-28)]”, in the experiment with human PTH-1 receptors [3], the “binding affinity, result in words” value was “modestly impaired”. Besides, the “PLC activation (IP3 formation), result in words” value (“PLC activation (IP3 formation)” for short) with human PTH-1 receptors [1] (HKRK B7 cells) is on record as “selectively eliminated PLC signaling, apart from a weak response at 10 μM”.
In the case of “SVSEIQLMHNLGKHLNSMRRVEWLRKKL-NH2 [[Arg^19]hPTH-(1-28)]”, the “AC activation (cAMP accumulation)” value on human PTH-1 receptors [2] is on record as “unaffected”. Further, the IC50 on human PTH-1 receptors [3] (read-out: apparent IC50 for binding) was found to be 100 nM. At human PTH-1 receptors [1] (HKRK B7 cells), the EC50 amounted to 300 nM and the “PLC activation (IP3 formation)” value is recorded as “maximally activated”.
Turning to “SerValSerGluIleGlnLeuMetHisAsnLeuGlyLysHis LeuAsnSerMetGluArgValGluTrpLeuArgLysLys (SVSEIQLMHNLGKHLNSMERVEWLRKK-NH2; listed as Homo sapiens) [hPTH-(1-27)]”, the “stimulation of activity of membrane-bound PKCs” value in the experiment on membrane-bound PKCs is recorded as “incapable of stimulating”.
Take “[Ala^1]hPTH-(1-34): hPTH-(1-34) with Ala^1 for Ser^1 [reference compound]”: the “AC activation (cAMP accumulation)” value with human PTH-1 receptors [2] was “indistinguishable from hPTH-(1-34)”. The “binding affinity, result in words” value with human PTH-1 receptors [3] is listed as “indistinguishable from hPTH-(1-34)”. In the experiment with human PTH-1 receptors [1] (HKRK B7 cells), the “PLC activation (IP3 formation)” value is “indistinguishable from hPTH-(1-34)”.
For “[Gly^1]hPTH-(1-34): hPTH-(1-34) with Gly^1 for Ser^1 [reference compound]”, the “AC activation (cAMP accumulation)” value with human PTH-1 receptors [2] was “unchanged”. For the same substance, the “binding affinity, result in words” value in the experiment with human PTH-1 receptors [3] is on record as “unchanged”. Further, the “PLC activity as % of the hPTH-(1-34) maximum” value with human PTH-1 receptors [1] (1000 nM, highest concentration tested, HKRK B7 cells) stood at 25%.
Turning to “[Tyr^0]hPTH-(1-34): hPTH-(1-34) with a tyrosine residue interposed at the N-terminus; purchased from Sigma (YSVSEIQLMHNLGKHLNSMERVEWLRKKLQDVHNF) [reference compound]”, the “PLC activation, percent of basal” value with human PTH-1 receptors [1] (HKRK B7 cells) is on record as 105±5% of basal.
“desamino-hPTHrP(1-36): hPTHrP(1-36) with the α-amino group removed [reference compound]”: in the experiment with human PTH-1 receptors [1] (HKRK B7 cells), the “PLC activation, percent of basal” value is 101±6% of basal.
Take “hPTH-(1-24): C-truncated human PTH peptide (SVSEIQLMHNLGKHLNSMERVEWL)”: the “AC activation (cAMP accumulation)” value with human PTH-1 receptors [2] is “only minimally active”.
On the same count and under the same terms, the entry for “hPTH-(1-25): C-truncated human PTH peptide (SVSEIQLMHNLGKHLNSMERVEWLR)” is “nearly identical”.
Consider “hPTH-(1-26): C-truncated human PTH peptide (SVSEIQLMHNLGKHLNSMERVEWLRK)”, for which the “stimulation of activity of membrane-bound PKCs” value with membrane-bound PKCs is “incapable of stimulating”.
On to “hPTH-(1-30): C-truncated human PTH peptide (SVSEIQLMHNLGKHLNSMERVEWLRKKLQD-NH2; UniProt P01270 32-61, looked up, fragment)”, for which the “PLC activation, previously reported” value with human PTH-1 receptors [4] was “fully activated”. Also, the “stimulation of activity of membrane-bound PKCs” value in the experiment with membrane-bound PKCs is “incapable of stimulating”. The “AC activation, previously reported” value with human PTH-1 receptors [5] is given as “fully activated”.
For “hPTH-(1-31): C-truncated human PTH peptide”, in the experiment with human PTH-1 receptors [4], the “PLC activation, previously reported” value is recorded as “fully activated”. In addition, the “AC activation, previously reported” value with human PTH-1 receptors [5] is recorded as “fully activated”.
Consider “hPTH-(2-34): hPTH-(1-34) lacking residue 1 (VSEIQLMHNLGKHLNSMERVEWLRKKLQDVHNY) [reference compound]”, for which, in the experiment with human PTH-1 receptors [2], the “AC activation (cAMP accumulation)” value is “comparable in magnitude and sensitivity to that of hPTH-(1-34); also recorded: equipotent with hPTH-(1-34)”. Further, in the experiment with human PTH-1 receptors [1] (HKRK B7 cells), the “PLC activation (IP3 formation)” value is “did not elicit PLC activity”.
In the case of “hPTHrP(1-36): human PTH-related peptide fragment 1-36 [reference compound]”, in the experiment with human PTH-1 receptors [1] (HKRK B7 cells), the “PLC activation, percent of basal” value is given as 178±12% of basal.
